Numbering of substitutions follows the chain as printed. Names and notes keep the numbering of the source.
Assays:
[1] = target: protease core from µ-calpain (µI-II) (UniProt P97571); experiment: cell-based or functional assay
calpain = settings: human sequence; Betts & Anagli (2004); cited from earlier work
[2] = target: T1, μI-II (protease core from μ-calpain) (Rattus norvegicus, UniProt P97571); experiment: Calpastatin inhibition assay, hydrolysis by μI-II; format: biochemical; settings: mean ±s.e.m.
T1 construct: the protease core from μ-calpain (μI-II) were expressed in E. coli; made in house; host or cells: E. coli
T1 sequence (P97571 55-354 limits assumed): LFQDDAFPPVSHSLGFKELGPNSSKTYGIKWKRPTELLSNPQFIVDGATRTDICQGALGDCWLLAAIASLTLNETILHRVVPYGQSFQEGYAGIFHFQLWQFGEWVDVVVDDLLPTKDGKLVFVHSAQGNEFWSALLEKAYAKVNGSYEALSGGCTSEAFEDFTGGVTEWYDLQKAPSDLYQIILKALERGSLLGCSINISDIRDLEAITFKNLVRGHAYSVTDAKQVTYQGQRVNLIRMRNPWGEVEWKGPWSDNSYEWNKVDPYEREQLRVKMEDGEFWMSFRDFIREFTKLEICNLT
Procedure: (§1) Calpastatin Inhibition Assays. Hydrolysis assays by m-calpain (1 nM or 20 nM), m-calpain mutants (1 nM) and μI-II (1.25-2.5 μM) were performed in 100-μl volumes containing 50 mM HEPES (pH 7.5), 200 mM NaCl, 1 mM DTT, various concentrations of substrate (0-1.5mM SLY-MCA (Sigma) or 0-50 μg/ml BODIPY-casein (Invitrogen)) and increasing inhibitor concentrations: 0-50 nM wild-type or mutant full-length calpastatin, fragments AB and BC, 0-20 μM peptide B1 for m-calpain, and 0-750 μM peptide B1 for μI-II. Duplicates or triplicates were performed for each condition in 96-well plates using a Molecular Devices microplate reader.

m-calpain [3] = target: T2, m-calpain (Rattus norvegicus, UniProt Q07009); experiment: Calpastatin inhibition assay, hydrolysis by m-calpain; format: biochemical; settings: for IC50 values toward m-calpain (in words): derived from initial rate analysis
T2 construct: diminishing activity >1,000-fold compared to full-length m-calpain; His6 (C); made in house; host or cells: E. coli
T2 sequence (Q07009 1-700): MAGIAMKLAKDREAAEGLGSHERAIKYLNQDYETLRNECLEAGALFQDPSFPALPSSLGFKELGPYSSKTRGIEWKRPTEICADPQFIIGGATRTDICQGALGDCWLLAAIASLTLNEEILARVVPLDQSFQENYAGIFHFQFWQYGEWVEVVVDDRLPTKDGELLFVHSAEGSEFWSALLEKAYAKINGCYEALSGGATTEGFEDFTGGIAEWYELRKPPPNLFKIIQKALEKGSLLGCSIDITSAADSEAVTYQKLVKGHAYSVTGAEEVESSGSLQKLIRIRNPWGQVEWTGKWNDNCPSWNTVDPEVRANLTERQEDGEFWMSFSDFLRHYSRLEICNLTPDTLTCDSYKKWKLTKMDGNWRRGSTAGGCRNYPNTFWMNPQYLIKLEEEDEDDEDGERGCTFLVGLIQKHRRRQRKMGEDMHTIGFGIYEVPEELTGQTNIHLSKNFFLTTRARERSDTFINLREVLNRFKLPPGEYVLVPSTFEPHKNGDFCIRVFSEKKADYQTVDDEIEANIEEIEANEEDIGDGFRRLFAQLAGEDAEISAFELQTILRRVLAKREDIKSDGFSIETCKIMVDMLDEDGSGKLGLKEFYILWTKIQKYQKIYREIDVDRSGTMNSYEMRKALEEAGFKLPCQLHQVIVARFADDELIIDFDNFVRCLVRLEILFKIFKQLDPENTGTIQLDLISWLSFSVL
T2 sequence (Q64537 87-270 partner limits assumed): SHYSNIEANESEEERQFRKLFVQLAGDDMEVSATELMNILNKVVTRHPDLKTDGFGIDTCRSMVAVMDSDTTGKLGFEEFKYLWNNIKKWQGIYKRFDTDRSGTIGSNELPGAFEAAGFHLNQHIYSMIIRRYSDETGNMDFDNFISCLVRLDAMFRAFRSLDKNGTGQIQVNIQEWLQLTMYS
Procedure: as §1

[4] = target: calpastatin repeat 1 K176Δ mutant (UniProt P27321)
Chain of calpastatin repeat 1 K176Δ mutant (P27321 whole entry, looked up, stated change not applied): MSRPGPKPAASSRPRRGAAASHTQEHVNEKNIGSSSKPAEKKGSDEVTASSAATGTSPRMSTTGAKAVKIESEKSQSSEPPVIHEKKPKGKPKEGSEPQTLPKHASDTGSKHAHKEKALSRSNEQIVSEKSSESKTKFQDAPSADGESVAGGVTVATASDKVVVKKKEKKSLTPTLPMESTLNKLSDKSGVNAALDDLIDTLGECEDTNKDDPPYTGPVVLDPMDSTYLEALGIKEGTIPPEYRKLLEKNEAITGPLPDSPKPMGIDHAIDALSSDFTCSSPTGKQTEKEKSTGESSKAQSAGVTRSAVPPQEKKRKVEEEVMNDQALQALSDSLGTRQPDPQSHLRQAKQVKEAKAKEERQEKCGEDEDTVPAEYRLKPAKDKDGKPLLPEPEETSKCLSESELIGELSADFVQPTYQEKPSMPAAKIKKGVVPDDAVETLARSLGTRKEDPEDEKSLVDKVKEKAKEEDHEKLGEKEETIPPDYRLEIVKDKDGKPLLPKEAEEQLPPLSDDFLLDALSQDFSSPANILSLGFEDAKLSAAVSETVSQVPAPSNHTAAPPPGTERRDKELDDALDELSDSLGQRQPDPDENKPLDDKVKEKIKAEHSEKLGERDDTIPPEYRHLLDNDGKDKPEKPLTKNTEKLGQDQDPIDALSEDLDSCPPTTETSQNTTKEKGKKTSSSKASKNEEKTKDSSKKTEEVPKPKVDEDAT

[5] = target: calpastatin repeat 1 E177Δ mutant (UniProt P27321)
Chain of calpastatin repeat 1 E177Δ mutant (P27321 whole entry, looked up, stated change not applied): as above

[6] = target: calpastatin repeat 1 K176/E177Δ mutant (UniProt P27321)
Chain of calpastatin repeat 1 K176/E177Δ mutant (P27321 whole entry, looked up, stated change not applied): as above

[7] = target: m-calpain (catalytically active heterodimer used in hydrolysis and autolysis assays) (rat), Q07009; experiment: cell-based or functional assay
[8] = target: protease core from µ-calpain (µI-II) (UniProt P97571 29-356); experiment: cell-based or functional assay
Chain of protease core from µ-calpain (µI-II) (UniProt P97571 29-356) (P97571 29-356 limits assumed): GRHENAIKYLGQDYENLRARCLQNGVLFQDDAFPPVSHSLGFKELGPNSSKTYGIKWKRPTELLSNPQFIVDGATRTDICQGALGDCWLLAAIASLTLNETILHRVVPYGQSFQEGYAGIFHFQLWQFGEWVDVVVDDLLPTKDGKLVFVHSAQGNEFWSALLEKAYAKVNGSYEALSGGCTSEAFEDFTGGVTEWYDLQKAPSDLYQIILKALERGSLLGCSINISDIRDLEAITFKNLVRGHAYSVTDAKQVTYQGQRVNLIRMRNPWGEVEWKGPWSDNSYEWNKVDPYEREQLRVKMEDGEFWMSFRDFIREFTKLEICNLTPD

heterodimeric calpains = settings: Wendt, et al. (2004); cited from earlier work
m-calpain [9] = experiment: Hydrolysis activity of m-calpain mutants at the DI-II-DIII interface; format: biochemical, rat; settings: Ala substitution in DIII of 80 kDa subunit
Procedure: as §1

Chain of protease core from µ-calpain (µI-II) (UniProt P97571) (P97571 29-356 limits assumed): as above

## calpastatin repeat 1 fragment BC (57 residues, Asp163-Thr219) (from UniProt P27321 163-219) (peptide)
[1]
  IC50 of inhibition of µI-II activity: 122 µM

## calpastatin repeat 1 fragment AB (57 residues, ending at Lys190) (from UniProt P27321 134-190) (peptide)
[1]
  IC50 of inhibition of µI-II activity: 80.5 µM

## rat calpastatin inhibitory repeat 1, short construct Ala134-Thr219 (86 residues) (from UniProt P27321 134-219)
[1]
  IC50 of inhibition of µI-II activity: 155 µM

## Asp^163-Gly^174: N-terminal peptide of the 27-residue region B peptide, human sequence (Betts & Anagli 2004) (TLGGPEETEEEN; UniProt P20810 163-174, looked up, fragment)
calpain
  calpain inhibition when the intact 27-residue peptide is replaced by N- and C-terminal peptides: abolished

## AB: 57-residue calpastatin repeat 1 fragment with regions A and B, ending at Lys190 (SKTKFQDAPSADGESVAGGVTVATASDKVVVKKKEKKSLTPTLPMESTLNKLSDKSG)
[2]
  IC50: 80.5 ± 10.2 µM
m-calpain [3]
  IC50 values toward m-calpain (in words): low nanomolar

## Ac-ALGIKEGTIPPEYRKLLE-NH2 [peptide B1, Ac-ALGIKEGTIPPEYRKLLE-NH2]
m-calpain [3]; mean ±s.e.m.
  IC50: 0.41 ± 0.08 µM

## m-calpain (catalytically active heterodimer used in hydrolysis and autolysis assays)
[4]
  autolysis / proteolysis of the complex (SDS-PAGE): all mutants succumbed to proteolysis within the kink
[5]
  autolysis / proteolysis of the complex (SDS-PAGE): all mutants succumbed to proteolysis within the kink
[6]
  autolysis / proteolysis of the complex (SDS-PAGE): all mutants succumbed to proteolysis within the kink

B1: Peptide B1 Ac-…-NH2 (peptide)
peptide: Ac-ALGIKEGTIPPEYRKLLE-NH2
[7]
  IC50 of inhibition of substrate hydrolysis by m-calpain: 0.41 µM

B2: Peptide B1 Ac-ALGIKEGTIPPEYRKLLE-NH2 (peptide)
peptide: Ac-ALGIKEGTIPPEYRKLLE-NH2
[8]
  IC50 of inhibition of µI-II activity: 24.5 µM

B3: calpastatin: 72 kDa endogenous calpain inhibitor with L domain and four 15-kDa inhibitory repeats (protein, listed as Rattus norvegicus)
chain: MESTLNKLSDKSGVNAALDDLIDTLGECEDTNKDDPPYTGPVVLDPMDSTYLEALGIKEGTIPPEYRKLLEKNEAITGPLPDSPKPMGIDHAIDALSSDFTCSSPTGKQTEKEKSTGESS
Heterodimeric calpains
  affinity of inhibition of heterodimeric calpains: nanomolar
m-calpain [3]; FIG. 7 legend, concerted binding to peripheral domains and active site
  inhibition of calpain: low-nanomolar

B4: R417A: rat m-calpain with R417A substitution in DIII of the 80 kDa subunit (protein, UniProt Q07009 20-700; Q64537 1-270, looked up, variant R417A)
Calpain-2 catalytic subunit: SHERAIKYLNQDYETLRNECLEAGALFQDPSFPALPSSLGFKELGPYSSKTRGIEWKRPTEICADPQFIIGGATRTDICQGALGDCWLLAAIASLTLNEEILARVVPLDQSFQENYAGIFHFQFWQYGEWVEVVVDDRLPTKDGELLFVHSAEGSEFWSALLEKAYAKINGCYEALSGGATTEGFEDFTGGIAEWYELRKPPPNLFKIIQKALEKGSLLGCSIDITSAADSEAVTYQKLVKGHAYSVTGAEEVESSGSLQKLIRIRNPWGQVEWTGKWNDNCPSWNTVDPEVRANLTERQEDGEFWMSFSDFLRHYSRLEICNLTPDTLTCDSYKKWKLTKMDGNWRRGSTAGGCRNYPNTFWMNPQYLIKLEEEDEDDEDGERGCTFLVGLIQKHRARQRKMGEDMHTIGFGIYEVPEELTGQTNIHLSKNFFLTTRARERSDTFINLREVLNRFKLPPGEYVLVPSTFEPHKNGDFCIRVFSEKKADYQTVDDEIEANIEEIEANEEDIGDGFRRLFAQLAGEDAEISAFELQTILRRVLAKREDIKSDGFSIETCKIMVDMLDEDGSGKLGLKEFYILWTKIQKYQKIYREIDVDRSGTMNSYEMRKALEEAGFKLPCQLHQVIVARFADDELIIDFDNFVRCLVRLEILFKIFKQLDPENTGTIQLDLISWLSFSVL
Calpain small subunit 1: MFLVNSFLKGGGGGGGGGGLGGGLGNVLGGLISGAAGGGGGGGGGGGMGLGGGGGGGGTAMRILGGVISAISEAAAQYNPEPPPPRSHYSNIEANESEEERQFRKLFVQLAGDDMEVSATELMNILNKVVTRHPDLKTDGFGIDTCRSMVAVMDSDTTGKLGFEEFKYLWNNIKKWQGIYKRFDTDRSGTIGSNELPGAFEAAGFHLNQHIYSMIIRRYSDETGNMDFDNFISCLVRLDAMFRAFRSLDKNGTGQIQVNIQEWLQLTMYS
m-calpain [9]
  m-calpain activity after substitution (fraction of wild type): one-half

B5: R420A: rat m-calpain with R420A substitution in DIII of the 80 kDa subunit (protein, UniProt Q07009 20-700; Q64537 1-270, looked up, variant R420A)
Calpain-2 catalytic subunit: B4 Calpain-2 catalytic subunit with A398R, R401A
Calpain small subunit 1: B4 Calpain small subunit 1
m-calpain [9]
  Ca2+ requirement: doubled
  m-calpain activity after substitution (fraction of wild type): one-quarter

B6: R469A: rat m-calpain with R469A substitution in DIII of the 80 kDa subunit (protein, UniProt Q07009 20-700; Q64537 1-270, looked up, variant R469A)
Calpain-2 catalytic subunit: B4 Calpain-2 catalytic subunit with A398R, R450A
Calpain small subunit 1: B4 Calpain small subunit 1
m-calpain [9]
  Ca2+ requirement: doubled
  decrease in m-calpain activity: > 60 fold

B7: repeat 1: 86-residue rat calpastatin inhibitory repeat 1 (residues 134-219), expressed in E. coli (protein, UniProt P27321 134-219, looked up, fragment)
chain: SKTKFQDAPSADGESVAGGVTVATASDKVVVKKKEKKSLTPTLPMESTLNKLSDKSGVNAALDDLIDTLGECEDTNKDDPPYTGPV
modifications: inhibitory repeat 1
[2]
  IC50: 155 ± 16.3 µM
m-calpain [3]
  IC50 values toward m-calpain (in words): low nanomolar

Reference: patent publication US20120240246A1, “Variant Calpastatins and Variant Calpains for Modulating the Activity or Stability of Calpain” (St. Jude Children's Research Hospital, priority 2009, published 2012)
